The stoichiometry N is a count of units in the complex or per binding partner.

The experiment deals with His6-HPr (B. subtilis) (UniProt P08877). In words: pull-down.
Sequence of UniProt P08877 (P08877 whole entry): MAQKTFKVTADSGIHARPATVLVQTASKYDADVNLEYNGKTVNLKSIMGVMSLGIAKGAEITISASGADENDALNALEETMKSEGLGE

“GST-HBD (from UniProt O31522 403-515) (domain or fragment)” yielded a stoichiometry N of 1.

The values are drawn from article PMC2788870.
